Reference: article PMC10348947, “Catalytic antibodies in arrhythmogenic cardiomyopathy patients cleave desmoglein 2 and N-cadherin and impair cardiomyocyte cohesion” (Cellular and Molecular Life Sciences: CMLS, 2023)

Target: the molecule itself
Assay: atomic force microscopy (cell-free force spectroscopy); the same Fc construct covalently linked via a PEG linker to the AFM tip and to the mica sheet; 37 °C; HBSS buffer; loading force 0.3 nN, contact delay 0.1 s, retraction velocity 1 µm/s; 1000 force-distance curves for the baseline trans-interaction probability, then 1 h with patient or control IgG (1:50)

B1: Recombinant human N-cadherin extracellular domain tagged with Fc fragment (N-CAD-Fc) (Fc fusion, UniProt P19022 160-724, looked up)
chain: DWVIPPINLPENSRGPFPQELVRIRSDRDKNLSLRYSVTGPGADQPPTGIFIINPISGQLSVTKPLDREQIARFHLRAHAVDINGNQVENPIDIVINVIDMNDNRPEFLHQVWNGTVPEGSKPGTYVMTVTAIDADDPNALNGMLRYRIVSQAPSTPSPNMFTINNETGDIITVAAGLDREKVQQYTLIIQATDMEGNPTYGLSNTATAVITVTDVNDNPPEFTAMTFYGEVPENRVDIIVANLTVTDKDQPHTPAWNAVYRISGGDPTGRFAIQTDPNSNDGLVTVVKPIDFETNRMFVLTVAAENQVPLAKGIQHPPQSTATVSVTVIDVNENPYFAPNPKIIRQEEGLHAGTMLTTFTAQDPDRYMQQNIRYTKLSDPANWLKIDPVNGQITTIAVLDRESPNVKNNIYNATFLASDNGIPPMSGTGTLQIYLLDINDNAPQVLPQEAETCETPDPNSINITALDYDIDPNAGPFAFDLPLSPVTIKRNWTITRLNGDFAQLNLKIKFLEAGIYEVPIIITDSGNPPKSNISILRVKVCQCDSNGDCTDVDRIVGAGLGTGA
notes: N-cadherin (N-CAD), human, extracellular domain-containing protein; The Western blot and cleavage assay used Sino Biological #11039-H03H, probably the same protein; The chain was covalently linked through a PEG linker to the AFM tip and the mica sheet; also called hN-CAD-Fc
binding result: binds
